Data reported in patent US20050119205A1, “Methods of modulating heme oxygenase-1 expression and treating heme oxygenase-1 mediated conditions” (published 2005).
Positions count from the first letter of the chain named.

Columns and labels:
[1] = target: T1, heme oxygenase-1 (hHO-1), E. coli expressed (Homo sapiens, UniProt P09601 P09601:1-288); test: EMSA; specificity control; settings: label: 32P 5'
T1 sequence: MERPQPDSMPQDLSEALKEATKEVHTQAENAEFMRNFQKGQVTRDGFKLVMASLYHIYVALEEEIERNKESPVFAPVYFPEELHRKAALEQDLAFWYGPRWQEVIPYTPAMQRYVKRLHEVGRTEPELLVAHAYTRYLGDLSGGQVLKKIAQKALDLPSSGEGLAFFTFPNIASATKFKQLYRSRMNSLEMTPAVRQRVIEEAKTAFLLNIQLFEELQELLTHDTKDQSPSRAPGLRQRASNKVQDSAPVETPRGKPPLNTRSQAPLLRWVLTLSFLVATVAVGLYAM

hBVR K143A = target: T2, hBVR K143A (Homo sapiens, UniProt P53004 SEQ:1-296, K143A); test: EMSA; background signal only; settings: tags: rabbit reticulocyte lysate; chain copies: 2; label: 32P 5'
T2 sequence: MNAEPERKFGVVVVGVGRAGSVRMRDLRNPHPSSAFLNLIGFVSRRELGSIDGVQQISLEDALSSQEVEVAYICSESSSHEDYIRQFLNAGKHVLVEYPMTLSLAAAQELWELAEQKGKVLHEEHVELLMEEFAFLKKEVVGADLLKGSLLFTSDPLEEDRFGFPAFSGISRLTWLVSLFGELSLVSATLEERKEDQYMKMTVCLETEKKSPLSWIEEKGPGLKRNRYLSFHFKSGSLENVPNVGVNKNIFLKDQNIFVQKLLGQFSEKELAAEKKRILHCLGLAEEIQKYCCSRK
Procedure: (§1) As with native gel analysis, in vitro translated proteins were assayed for DNA binding immediately after synthesis. 1 μl of translated material was added to 5000-500,000 cpm of [³²P]-labeled DNA fragment representing approximately 2-3 ng of DNA. 0.1 μg of poly (dI•dC) in 10 μl of DNA binding buffer was added to the labeled DNA. After incubating samples for 20 min at room temperature, 5 μl loading buffer was added. The samples were resolved on 12% native polyacrylamide gel with 35 m Amp at 4° C. The gels were processed as described above. Dried gels were put on two pieces of film separated by a piece of paper. Autoradiography was done at −70° C. for different time periods.
(§2) For this set of experiments, the [³⁵S] methionine-labeled mutant BVR proteins were generated by in vitro translation and assayed on a 12% native gel for detection of the ˜69 kDa protein band and analysis of DNA for complex formation. The 100-mer DNA fragment with two AP-1 sites or without an AP-1 site were used. On the native gel the high molecular weight band was not detected with the mutated proteins.

hBVR L150A = target: T3, hBVR L150A (Homo sapiens, UniProt P53004 SEQ:1-296, L150A); test: EMSA; background signal only; settings: tags: rabbit reticulocyte lysate; chain copies: 2; label: 32P 5'
T3 sequence: T2 sequence with A143K, L150A
Procedure: as §1, §2

hBVR L157A = target: T4, hBVR L157A (Homo sapiens, UniProt P53004 SEQ:1-296, L157A); test: EMSA; background signal only; settings: tags: rabbit reticulocyte lysate; chain copies: 2; label: 32P 5'
T4 sequence: T2 sequence with A143K, L157A
Procedure: as §1, §2

Measured: binding result

B1: 100-mer, zero AP-1 sites (OL.625/OL.626) (dsDNA)
DNA 1: TCCTCAGCTGCTTTTATGCGATCCTCTGGTTGGGAGGGGTGATTAGCAGACAAAGGGAAGACAGATTTTGCGATCCTCCCCTCTGTTCCCTCTGCCTCAG
DNA 2: CTGAGGCAGAGGGAACAGAGGGGAGGATCGCAAAATCTGTCTTCCCTTTGTCTGCTAATCACCCCTCCCAACCAGAGGATCGCATAAAAGCAGCTGAGGA
no binding: all assays above
